System: H322 cells
Test: Cleaved active caspase-3 immunostaining of resected H322 tumors
Assay type: in vivo, NMRI nude mice
Method: FIG. 3. COMMD2 is required for UNC5B-induced cell death and tumor suppression. (A): Silencing COMMD2 inhibits UNC5B-induced DNA fragmentation. Stable Hela cells inducible for UNC5B were transfected with two distinct siRNA scramble (siCTRL) or targeting COMMD2 (siCOMMD2-1 and -2). Upon treatment for 18 hours with the indicated concentrations of doxycycline (Dox), DNA fragmentation was evaluated through FACS analysis (n=3, **** p<0.0001, Ordinary two-way ANOVA). Values are given as means±SEM. (B, C, D): Tumor growth inhibition driven by netrin-1 interference necessitates UNC5B and COMMD2. NMRI nude mice were engrafted with stable H322 cells, knock-down for luciferase (sgLUC, used as a non-targeting control), UNC5B (sgUNC5B) or COMMD2 (sgCOMMD2), generated with CRISPR-Cas-9-KRAB strategy. Tumors obtained from nude mice engrafted with stable H322 cells were lysed and gene expression was evaluated by quantitative RT-PCR (n=2-3, *p<0.05, Kruskal-Wallis test with Dunn's multiple comparisons test) (B). After tumor volume reached 50 mm^3, mice were intravenously treated three time per week with anti-netrin-1 (NP137) or control (Iso-mAb) antibodies and tumor growth was evaluated (n=10 mice/group, ^nsp>0.05, *p<0.05, Mann-Whitney test, two-tailed) (C). A histogram illustrating tumor volumes at 35 days after first treatment is indicated in (D) (n=10 mice/group, ^nsp>0.05, *p<0.05, *** p<0.001, Kruskal-Wallis test with uncorrected Dunn's test). (E). Silencing of UNC5B and COMMD2 restrains in vivo NP137-induced apoptosis. After sacrificing the mice, tumors were resected and apoptosis was quantified by immunostaining of active cleaved caspase-3. […]
5-week-old female athymic NMRI nude mice were obtained from Janvier Labs (Saint Bertevin, France). […] Tumor size was measured three times per week with a caliper. Tumor volume was calculated according to the formula v=0.5× (l×w2), where v is volume, l is length, and w is width. […]

B1: NP137: humanized anti-netrin-1 monoclonal antibody, VH SEQ ID NO: 22, VL SEQ ID NO: 16, human IgG1 (antibody, V domains shown)
VH: QVQLQQSGPGLVKPSQTLSLTCAISGYTFTSYNMHWVRQATGQGLEWMGAIYPGNGDTSYNQKFKGRLTISKDTSKNQVVLTMTNMDPVDTATYYCARGGTGFAYWGQG
VL: DIQMTQSPSSLSASVGDRVTITCKASQSVSNDVAWYQQKPGQAPRLLIYYASNRYTGIPPRFSGSGYGTDFTLTINNIESEDAAYYFCQQDYSSPWTFGQG
modifications: human IgG1 constant region; humanized variant; MISC_FEATURE - CDR according to IGMT
With B1 the “percentage of caspase-3 positive cells” value (H322 tumors knocked-out for COMMD2) was “failed to detect a similar increase”, the “percentage of caspase-3 positive cells” value (H322 tumors knocked-out for UNC5B) was “failed to detect a similar increase” and the “apoptosis, cleaved active caspase-3 positive cells” value (control H322 tumors (sgLUC)) was “associated with apoptosis induction”.

From patent publication US20250215071A1, “Novel Mcl-1 inhibitor and combination of Mcl-1 and a BH3 mimetic, such as a Bcl-2 inhibitor” (NETRIS PHARMA, priority 2022, published 2025)
